Drawing on paper PMC10954123, this text covers stoichiometry N for 2 substances.

Experiment [1] deals with MotE, endogenous in Cereibacter sphaeroides AM1 (Cereibacter sphaeroides (endogenous in AM1)). The experiment in a line: non-reducing SDS-PAGE; total cell extracts of AM1 prepared without or with beta-mercaptoethanol, immunodetection with anti-MotE; monomer to disulfide-linked dimer.
In experiment [2] the target is His6x-MotE (mature form of MotE of Cereibacter sphaeroides) (Cereibacter sphaeroides). The experiment in a line: non-reducing SDS-PAGE; purified His6x-MotE, loading buffer without or with beta-mercaptoethanol, Coomassie blue stain; monomer to disulfide-linked dimer.

By stoichiometry N is commonly meant a count of units in the complex or per binding partner. “MotE, endogenous in Cereibacter sphaeroides AM1 (natural protein)” yielded a stoichiometry N in experiment [1] of 2. In turn, “His6x-MotE (mature form of MotE of Cereibacter sphaeroides) (natural protein)” gave a stoichiometry N in experiment [2] of 2.
